The target in the assay is hMC4-R (human), P32245. The experiment in a line: competition. The following applies: modification not given.

Bridges are numbered along the chain shown (N, C = ends). Where no end group is shown, it is not given here. [ ]: non-standard residue; d: D form. 1Nal = N[C@@H](Cc1cccc2ccccc12)C(=O)O; 2Nal = N[C@@H](Cc1ccc2ccccc2c1)C(=O)O; d2Nal = N[C@H](Cc1ccc2ccccc2c1)C(=O)O; hPhe = N[C@@H](CCc1ccccc1)C(=O)O; Cha = N[C@@H](CC1CCCCC1)C(=O)O; dCha = N[C@H](CC1CCCCC1)C(=O)O; dTle = CC(C)(C)[C@@H](N)C(=O)O; Nle = CCCC[C@H](N)C(=O)O; Apn = not defined here; Bal = not defined here; Ahx = NCCCCCC(=O)O; GABA = NCCCC(=O)O; βAla = NCCC(=O)O

Chain of hMC4-R (human), P32245 (P32245 whole entry): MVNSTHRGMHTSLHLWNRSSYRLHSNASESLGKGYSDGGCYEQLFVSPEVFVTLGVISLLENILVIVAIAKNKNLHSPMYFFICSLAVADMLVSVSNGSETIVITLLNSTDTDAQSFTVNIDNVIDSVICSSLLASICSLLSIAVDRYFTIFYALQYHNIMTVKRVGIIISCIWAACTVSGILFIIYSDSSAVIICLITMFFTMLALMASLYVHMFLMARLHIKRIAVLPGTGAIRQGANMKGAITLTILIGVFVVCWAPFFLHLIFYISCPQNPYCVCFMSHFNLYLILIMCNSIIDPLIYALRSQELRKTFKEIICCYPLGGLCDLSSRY

As for Ac-[Nle]CH[dF]RW[Apn]C-NH2 (disulfide 2-8; reading uncertain) [Ac-Nle-c(Cys-His-D-Phe-Arg-Trp-Apn-Cys)-NH2], the Ki (commonly the dissociation constant of the complex between target and ligand, obtained from inhibition or displacement) turned out to be 0.894 nM.

B1: Ac-Nle-c(Cys-His-D-Phe-Arg-Trp-Ahx-Cys)-NH2 (peptide)
chain: Ac-[Nle]CH[dF]RW[Ahx]C-NH2
modifications: disulfide 2-8
SMILES: CCCC[C@H](NC(C)=O)C(=O)N[C@H]1CSSC[C@@H](C(N)=O)NC(=O)CCCCCNC(=O)[C@H](Cc2c[nH]c3ccccc23)NC(=O)[C@H](CCCNC(=N)N)NC(=O)[C@@H](Cc2ccccc2)NC(=O)[C@H](Cc2c[nH]cn2)NC1=O
Molecule B1 showed a Ki of 1.23 nM.
Ac-[Nle]C[dV]H[dF]RWC-NH2 (disulfide 2-8) [Ac-Nle-c(Cys-D-Val-His-D-Phe-Arg-Trp-Cys)-NH2] registered a Ki of 10.1 nM.
The molecule Ac-[Nle]C[dA]H[d2Nal]R[Bal]C-NH2 (disulfide 2-8; reading uncertain) [Ac-Nle-c(Cys-D-Ala-His-D-2-Nal-Arg-Bal-Cys)-NH2] displayed a Ki of 16.6 nM. Compared with the last molecule, the Ki is about 1.6-fold higher.
Molecule [Nle]CH[dF]RW[Apn]C-NH2 (disulfide 2-8; reading uncertain) [Nle-c(Cys-His-D-Phe-Arg-Trp-Apn-Cys)-NH2] showed a Ki of 0.85 nM.

B2: Ac-2-Nal-c(Cys-His-D-Phe-Arg-Trp-Gaba-Cys)-NH2 (peptide)
chain: Ac-[2Nal]CH[dF]RW[GABA]C-NH2
modifications: disulfide 2-8
SMILES: CC(=O)N[C@@H](Cc1ccc2ccccc2c1)C(=O)N[C@H]1CSSC[C@@H](C(N)=O)NC(=O)CCCNC(=O)[C@H](Cc2c[nH]c3ccccc23)NC(=O)[C@H](CCCNC(=N)N)NC(=O)[C@@H](Cc2ccccc2)NC(=O)[C@H](Cc2c[nH]cn2)NC1=O
Regarding B2, the Ki amounted to 2.94 nM.
With Ac-[Nle]C[dI]H[dF]RWC-NH2 (disulfide 2-8) [Ac-Nle-c(Cys-D-Ile-His-D-Phe-Arg-Trp-Cys)-NH2], the Ki is 9 nM.

B3: Ac-Nle-c(Cys-D-Leu-His-D-Phe-Arg-Trp-Cys)-NH2 (peptide)
chain: Ac-[Nle]C[dL]H[dF]RWC-NH2
modifications: disulfide 2-8
SMILES: CCCC[C@H](NC(C)=O)C(=O)N[C@H]1CSSC[C@@H](C(N)=O)NC(=O)[C@H](Cc2c[nH]c3ccccc23)NC(=O)[C@H](CCCNC(=N)N)NC(=O)[C@@H](Cc2ccccc2)NC(=O)[C@H](Cc2c[nH]cn2)NC(=O)[C@@H](CC(C)C)NC1=O
The molecule B3 yielded a Ki of 4.13 nM. This Ki lies about 2.2-fold lower than the previous one.
Molecule Ac-[hPhe]DH[d2Nal]RW[GABA]K-NH2 (lactam 2-8) [Ac-hPhe-c(Asp-His-D-2-Nal-Arg-Trp-Gaba-Lys)-NH2] displayed a Ki of 0.931 nM.

B4: Ac-Cha-c(Cys-His-D-Phe-Arg-Trp-Gaba-Cys)-NH2 (peptide)
chain: Ac-[Cha]CH[dF]RW[GABA]C-NH2
modifications: disulfide 2-8
SMILES: CC(=O)N[C@@H](CC1CCCCC1)C(=O)N[C@H]1CSSC[C@@H](C(N)=O)NC(=O)CCCNC(=O)[C@H](Cc2c[nH]c3ccccc23)NC(=O)[C@H](CCCNC(=N)N)NC(=O)[C@@H](Cc2ccccc2)NC(=O)[C@H](Cc2c[nH]cn2)NC1=O
Take B4: the Ki was 0.884 nM. This Ki and that of the molecule before are within 1.5-fold of each other.
In the case of Ac-[hPhe]DH[dF]RW[GABA]K-NH2 (lactam 2-8) [Ac-hPhe-c(Asp-His-D-Phe-Arg-Trp-Gaba-Lys)-NH2], the Ki is 3.37 nM.

B5: Ac-Nle-c(Cys-D-Cha-His-D-Phe-Arg-Trp-Cys)-NH2 (peptide)
chain: Ac-[Nle]C[dCha]H[dF]RWC-NH2
modifications: disulfide 2-8
SMILES: CCCC[C@H](NC(C)=O)C(=O)N[C@H]1CSSC[C@@H](C(N)=O)NC(=O)[C@H](Cc2c[nH]c3ccccc23)NC(=O)[C@H](CCCNC(=N)N)NC(=O)[C@@H](Cc2ccccc2)NC(=O)[C@H](Cc2c[nH]cn2)NC(=O)[C@@H](CC2CCCCC2)NC1=O
Turning to B5, the Ki stood at 1.41 nM.

B6: Ac-Nle-c(Cys-D-Ala-His-D-2-Nal-Arg-2-Nal-Cys)-NH2 (peptide)
chain: Ac-[Nle]C[dA]H[d2Nal]R[2Nal]C-NH2
modifications: disulfide 2-8
SMILES: CCCC[C@H](NC(C)=O)C(=O)N[C@H]1CSSC[C@@H](C(N)=O)NC(=O)[C@H](Cc2ccc3ccccc3c2)NC(=O)[C@H](CCCNC(=N)N)NC(=O)[C@@H](Cc2ccc3ccccc3c2)NC(=O)[C@H](Cc2c[nH]cn2)NC(=O)[C@@H](C)NC1=O
As to B6, the inhibition constant (Ki) was 2.53 nM.
Regarding Ac-[Nle]DH[dF]RW[GABA]K-NH2 (lactam 2-8) [Ac-Nle-c(Asp-His-D-Phe-Arg-Trp-Gaba-Lys)-NH2], the Ki was found to be 1.04 nM.
Ac-[Nle]CH[d2Nal]RW[GABA]C-NH2 (disulfide 2-8) [Ac-Nle-c(Cys-His-D-2-Nal-Arg-Trp-Gaba-Cys)-NH2] yielded a Ki of 0.375 nM. This Ki is about 2.8-fold lower than that of the molecule before.

B7: Ac-Cha-c(Asp-His-D-2-Nal-Arg-Trp-Gaba-Lys)-NH2 (peptide)
chain: Ac-[Cha]DH[d2Nal]RW[GABA]K-NH2
modifications: lactam 2-8
SMILES: CC(=O)N[C@@H](CC1CCCCC1)C(=O)N[C@H]1CC(=O)NCCCC[C@@H](C(N)=O)NC(=O)CCCNC(=O)[C@H](Cc2c[nH]c3ccccc23)NC(=O)[C@H](CCCNC(=N)N)NC(=O)[C@@H](Cc2ccc3ccccc3c2)NC(=O)[C@H](Cc2c[nH]cn2)NC1=O
B7 returned a Ki of 2.82 nM.

B8: Ac-Nle-c(Cys-D-Ala-His-D-2-Nal-Arg-1-Nal-Cys)-NH2 (peptide)
chain: Ac-[Nle]C[dA]H[d2Nal]R[1Nal]C-NH2
modifications: disulfide 2-8
SMILES: CCCC[C@H](NC(C)=O)C(=O)N[C@H]1CSSC[C@@H](C(N)=O)NC(=O)[C@H](Cc2cccc3ccccc23)NC(=O)[C@H](CCCNC(=N)N)NC(=O)[C@@H](Cc2ccc3ccccc3c2)NC(=O)[C@H](Cc2c[nH]cn2)NC(=O)[C@@H](C)NC1=O
For the molecule B8, the Ki amounted to 3.07 nM. The Ki values of the last two molecules are within 1.5-fold of each other.
As to Ac-[Nle]C[dTle]H[dF]RWC-NH2 (disulfide 2-8) [Ac-Nle-c(Cys-D-Tle-His-D-Phe-Arg-Trp-Cys)-NH2], the Ki was determined as 11.2 nM. This Ki lies about 3.6-fold higher than the previous one.

B9: Ac-c(Cys-D-Ala-His-D-Phe-Arg-2-Nal-Ala-Cys)-NH2 (peptide)
chain: Ac-C[dA]H[dF]R[2Nal]AC-NH2
modifications: disulfide 1-8
SMILES: CC(=O)N[C@H]1CSSC[C@@H](C(N)=O)NC(=O)[C@H](C)NC(=O)[C@H](Cc2ccc3ccccc3c2)NC(=O)[C@H](CCCNC(=N)N)NC(=O)[C@@H](Cc2ccccc2)NC(=O)[C@H](Cc2c[nH]cn2)NC(=O)[C@@H](C)NC1=O
B9 gave a Ki of 40.7 nM. Against the preceding molecule, the Ki is about 3.6-fold higher.
The same measure for [Nle]CH[dF]RW[GABA]C-NH2 (disulfide 2-8) [Nle-c(Cys-His-D-Phe-Arg-Trp-Gaba-Cys)-NH2]: 0.47 nM.

B10: Ac-Nle-c(Asp-His-D-Phe-Arg-Trp-β-Ala-Lys)-NH2 (peptide)
chain: Ac-[Nle]DH[dF]RW[βAla]K-NH2
modifications: lactam 2-8
SMILES: CCCC[C@H](NC(C)=O)C(=O)N[C@H]1CC(=O)NCCCC[C@@H](C(N)=O)NC(=O)CCNC(=O)[C@H](Cc2c[nH]c3ccccc23)NC(=O)[C@H](CCCNC(=N)N)NC(=O)[C@@H](Cc2ccccc2)NC(=O)[C@H](Cc2c[nH]cn2)NC1=O
B10 displayed a Ki of 0.617 nM.
Ac-[Nle]DH[dF]RW[Apn]K-NH2 (lactam 2-8; reading uncertain) [Ac-Nle-c(Asp-His-D-Phe-Arg-Trp-Apn-Lys)-NH2] came in with a Ki of 11.1 nM.
For Ac-[Nle]CH[d2Nal]RW[Ahx]C-NH2 (disulfide 2-8) [Ac-Nle-c(Cys-His-D-2-Nal-Arg-Trp-Ahx-Cys)-NH2], the Ki was found to be 0.998 nM.

The record behind these values is patent publication US20170240595.
